B1: Sorting nexin-20 (Homo sapiens), Q7Z614 (parent)
chain: MASPEHPGSPGCMGPITQCTARTQQEAPATGPDLPHPGPDGHLDTHSGLSSNSSMTTRELQQYWQNQKCRWKHVKLLFEIASARIEERKVSKFVVYQIIVIQTGSFDNNKAVLERRYSDFAKLQKALLKTFREEIEDVEFPRKHLTGNFAEEMICERRRALQEYLGLLYAIRCVRRSREFLDFLTRPELREAFGCLRAGQYPRALELLLRVLPLQEKLTAHCPAAAVPALCAVLLCHRDLDRPAEAFAAGERALQRLQAREGHRYYAPLLDAMVRLAYALGKDFVTLQERLEESQLRRPTPRGITLKELTVREYLH
partner: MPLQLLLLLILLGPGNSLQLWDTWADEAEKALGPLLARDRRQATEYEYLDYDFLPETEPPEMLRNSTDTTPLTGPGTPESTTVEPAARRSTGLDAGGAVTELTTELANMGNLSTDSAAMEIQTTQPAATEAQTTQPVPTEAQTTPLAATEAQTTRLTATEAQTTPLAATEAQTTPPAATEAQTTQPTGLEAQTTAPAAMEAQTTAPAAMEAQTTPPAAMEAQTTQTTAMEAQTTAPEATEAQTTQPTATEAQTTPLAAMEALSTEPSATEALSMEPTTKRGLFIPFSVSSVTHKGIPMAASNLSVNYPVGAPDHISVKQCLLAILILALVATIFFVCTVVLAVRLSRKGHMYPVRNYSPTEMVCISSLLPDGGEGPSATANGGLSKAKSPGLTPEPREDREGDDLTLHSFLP

Variants of: B1
Conditions: with selpl_human SELPLG

Row | Variant | effect of a mutation on the interaction
1 | MASPEHPGSPGCMGPITQCTARTQQEAPATGPDLPHPGPDGHLDTHSGLSSNSSMTTRELQQYWQNQKCRWKHVKLLFEIASARIEERKVSKFVVYQIIVIQTGSFDNNKAVLERQYSDFAKLQKALLKTFREEIEDVEFPRKHLTGNFAEEMICERRRALQEYLGLLYAIRCVRRSREFLDFLTRPELREAFGCLRAGQYPRALELLLRVLPLQEKLTAHCPAAAVPALCAVLLCHRDLDRPAEAFAAGERALQRLQAREGHRYYAPLLDAMVRLAYALGKDFVTLQERLEESQLRRPTPRGITLKELTVREYLH [R116Q] | disrupting interaction

— IntAct's records for PubMed 18196517
